Test: yeast display, Sf9 membrane polyspecificity reagent, FACS + sequencing; frameworks hold sequencing errors
In short: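 Galactose induction of a Saccharomyces cerevisiae BJ5465 synthetic nanobody display library ran 36–48 hours. The cells were then stained for 1 hour at 4 °C with 10% biotinylated, detergent-solubilized Sf9 membrane reagent, pulled down on streptavidin microbeads and FACS-sorted into low and high (top ~1%) gates on expression and reagent-binding fluorescence. Labels for polyreactivity follow the gate of origin.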

QVQLVESGGGLVQAGGSLRLSCAASGRIFDQYALGWYRQAPRKESELVAFINRGGSTNYADSVKGRFTISRDNAKNTVYLQMNSLKPEDTEVYYCAADGDYYVESQTGHTYYYWGQGTQVTVSS
polyreactivity (PSR sort gate): low polyreactivity

QVQLVESGGGLVQAGGSLRLSCAASGRIFDQYTMGWYRQAPGKERELVAAIRWSDGSTYYADSVKGRFTISRDNAKNTVYLQMNSLKPEDTAVYYCAADTRTSYYNDDYDYWGQGTQVTVSS
polyreactivity (PSR sort gate): low polyreactivity

QVQLVESGGGLVQAGGSLRLSCAASGRIFDRNAMGWYRQAPGKERELVAAISSRGTSTYYADSVKGRFTISRDNAKNTVYLQMNSLKPEDTAVYYCAARPRYASDEFGYWGQGTQVTVSS
polyreactivity (PSR sort gate): low polyreactivity

QVQLVESGGGLVQAGGSLRLSCAASGRIFDRNAMGWYRQAPGKERELVARIDPGDDTNYADSVKGRFTISRDNAKNTVYLQMNSLKAEDTAVYYCATDPDYVLYRTAYYEYDYWGQGTQVTVSS
polyreactivity (PSR sort gate): low polyreactivity

QVQLVESGGGLVQAGGSLRLSCAASGRIFDSYAMGWYRQAPGKERELVAVISNNDGTTYYADSVKGRFTISRDNAKTTVYLQMNSLKPEDTAVYYCNAVYSSGVDGSEGFDYWGQGTQVTVSS
polyreactivity (PSR sort gate): low polyreactivity

QVQLVESGGGLVQAGGSLRLSCAASGRIFDTNAMGWYRQAPGKERELVAAITYSGGSTYYADSVKGRFTISRDNAKNTVYLQMNSLKPEDTAVYYCAAGPYDPRYDYWGQGTQVTVSS
polyreactivity (PSR sort gate): high polyreactivity

QVQLVESGGGLVQAGGSLRLSCAASGRIFDTNVMGWYRQAPGKERELVAALSYSGGSTYYADSVKGRFTISRDNAKNTVYLQMNSLKPEDTAVYYCAAQYWQGDYDYRGQGTQVTVSS
polyreactivity (PSR sort gate): high polyreactivity

QVQLVESGGGLVQAGGSLRLSCAASGRIFDVYAKGWYRQAPGKERELFAAISKSDGRTYYADSVKGRFTISRDNAKNTVYLQMNSLKPEDTAVYYCNVRAYGARAGTKMYYWGQGTQVNVSS
polyreactivity (PSR sort gate): low polyreactivity

QVQLVESGGGLVQAGGSLRLSCAASGRIFDVYAMGWYRQAPGKERELVATITGSGGGTYYADSVKGRFTISRDNAKNTVYLQMNSLKPEDSEVYYCASYYYPNYAYYVSNVVYDYWVQGTQVTVSS
polyreactivity (PSR sort gate): low polyreactivity

QVQLVESGGGLVQAGGSLRLSCAASGRIFDWNAMGWYRQAPGKERELVAAISYSDGSTYYADSVKGRFTISRDNAKNTVYLQMNSLKREDTAVYYCDADFYDRTYITWYEYWGQGTQVTVSS
polyreactivity (PSR sort gate): high polyreactivity

QVQLVESGGGLVQAGGSLRLSCAASGRIFDWNTMGRYRQAPGKERELVAAISYEGSTYYADSVKGRFTISRDNAKNTVYLQMNSLKPEDTAVFYCNAYPLTQYFAQGYDYWGQGTQVTVSS
polyreactivity (PSR sort gate): low polyreactivity

QVQLVESGGGLVQAGGSLRLSCAASGRIFDYNAMGWYRQVPGKERELVAAITKDDGSTYYADSVKGRFTISRDNAKNTVYLQMTSLKPEDTAVYYCAADFYWTYVDIWYDYWGHGTQVTVSS
polyreactivity (PSR sort gate): low polyreactivity

QVQLVESGGGLVQAGGSLRLSCAASGRIFDYYAMGWYRPAPGKERELVAAITSGGTTTYYADSVKGRFTISRDNAKNTVYVQMNSLKPEDTAVYYCAKYPYHIYHTDGDYWGQGTQVTVSS
polyreactivity (PSR sort gate): low polyreactivity

QVQLVESGGGLVQAGGSLRLSCAASGRIFDYYAMGWYRQAPGKERELVAAIDWRGDRTYYADSVKGRFTISRDNAKNTVYLQMNSLKPEDTAVYYCNVLDTRQVGGYRFDYWGQGTQVTVSS
polyreactivity (PSR sort gate): low polyreactivity

QVQLVESGGGLVQAGGSLRLSCAASGRIFDYYAMGWYRQAPGKERELVAAISSSVGNTYYADSVKGRFTISRDNAKNTVYLQMNSLKPEDTAVYYCADYSYVRSSYEVEYDYWGQGTQVTVSS
polyreactivity (PSR sort gate): low polyreactivity

QVQLVESGGGLVQAGGSLRLSCAASGRIFDYYAMGWYRQAPGKERELVASISRSGGSTYYADSVKGRFTISRDNAKNTVYLQMNSLKPEDTAVYYCAAVRYITKEFYWGQGTQVTVSS
polyreactivity (PSR sort gate): high polyreactivity

QVQLVESGGGLVQAGGSLRLSCAASGRIFDYYAMGWYRQAPGKERELVAVINRDGSTYYADSVKGRFTISRDNAKNTVYLQMNSLKPEDTAVYYCARDSAWAARGPFTDGAYDSWGQGTQVTVSS
polyreactivity (PSR sort gate): low polyreactivity

QVQLVESGGGLVQAGGSLRLSCAASGRIFDYYAMGWYRQAPGKERELVAVISRGGRTKYADSVKGRFTISRDNAKNTVYLQMNSLKPEDTAVFYCAAYPSYYGDSGLRYDYWGQGTQVTVSS
polyreactivity (PSR sort gate): high polyreactivity

QVQLVESGGGLVQAGGSLRLSCAASGRIFDYYGMGWYRHAPGKERELVAAITSSGSRTYYADSVKGRFTISRDNAKNTVYLQMNSLKPEDTAVYYCARGGGRRKGLVDYWGQGTQVTVSS
polyreactivity (PSR sort gate): low polyreactivity

QVQLVESGGGLVQAGGSLRLSCAASGRIFDYYTMGWYRQAPGKESELVAAITKSGGSTYYADSVKGRFTISRDNAKNTVFLLMNILKPEDTAVYYCAAVTYDYYWFGDIEDDFWGQGTQVTVSS
polyreactivity (PSR sort gate): low polyreactivity

QVQLVESGGGLVQAGGSLRLSCAASGRIFEHYAMGWYRQAPGKERELVATISSGGSTYYADSVKGRFTISRDNAKNTVYLQMNSLKPEDTAVYYCAAERFWPYKSYYWGQGTQVTVSS
polyreactivity (PSR sort gate): low polyreactivity

QVQLVESGGGLVQAGGSLRLSCAASGRIFELNARGWYSQAPGKERELVAVISSGGNTHYADSVKGRFTISRDNAKNTVYLQMNSLNPEDTAVYYCAAVASKHWGRDYWGQGTQVTVSS
polyreactivity (PSR sort gate): low polyreactivity

QVQLVESGGGLVQAGGSLRLSCAASGRIFEPYAMGWYRQAPGNERELVAAINSGGSTNYADSVKGRFTISRDNAKNTVYLQMNSLKPEDTAVYYCAASVYGQHAGPGRWYTFYYWGQGTQVTVSS
polyreactivity (PSR sort gate): low polyreactivity

QVQLVESGGGLVQAGGSLRLSCAASGRIFESKAMGWYRQAPGKERELVAAISVNGASTSYADSVKGRFTISRDNAKNTVYLQMNSLKPEDTAVYYCAARRGKGYYYWGQGTQVTVSS
polyreactivity (PSR sort gate): high polyreactivity

QVQLVESGGGLVQAGGSLRLSCAASGRIFEVNVMGWYRQAPGKERELVAAITTGGGSTYYADSVKGRFTISRDNAKNTVYLQMNSLKPEDTAVYYCAAEPILIDEYWGQGTQVTVSS
polyreactivity (PSR sort gate): low polyreactivity

QVQLVESGGGLVQAGGSLRLSCAASGRIFEVYDMGWYRKAPGKERELVAAISESDDNTYYADSVKGRFTISRDNAKNTVYLQMNSLKPEDTAVYYCNADVPGDTGWWGFDYWGQGTQVTVSS
polyreactivity (PSR sort gate): low polyreactivity

QVQLVESGGGLVQAGGSLRLSCAASGRIFFANAMGWYRQAPGKERELVATITSGESTNYADSVKGRFTISRDNAKNTVYFEMNSLKPEDTAVYYCAADYYWYSPGAYSYAGYDYWGQGTQVTVSS
polyreactivity (PSR sort gate): low polyreactivity

QVQLVESGGGLVQAGGSLRLSCAASGRIFFDYAMGWYRQAPGKERELGADISYNGGSTNYADSVKGRFTISRDNAKNTVYLQMISLKPEDTAVYYCNRALVPVYDLDYYWGQGTQVTVSS
polyreactivity (PSR sort gate): low polyreactivity

QVQLVESGGGLVQAGGSLRLSCAASGRIFFDYAMGWYRQAPGKERELVAAISSGGSRTYYADSVKGRFTISRDNAKNTVYLQMNSLKPEDTAVYYCAADSTVYQDEYWGQGTQVTVSS
polyreactivity (PSR sort gate): high polyreactivity

QVQLVESGGGLVQAGGSLRLSCAASGRIFFDYDMGWYRPAPGKERELVAAISSSGDSTYYADSVKGRFTISRDNAKNTVYLQMNSLKPEDTAVYYCNAKSVPVNYVAIKYDYWGQGTQVTVSS
polyreactivity (PSR sort gate): high polyreactivity

QVQLVESGGGLVQAGGSLRLSCAASGRIFFKYAMGWYRQAPGKERELVAAISKTGGRTYYADSVKGRFTISRDNAKNTVYLQMNSLKPEDTAVYYCRGYTSFGYDYWGQGTQVTVSS
polyreactivity (PSR sort gate): high polyreactivity

QVQLVESGGGLVQAGGSLRLSCAASGRIFFLYAMAWYRQAPGKEREFVAAISSSGGSTYYADSVKGRFTISRDNAKNTVYLKMNSLKPEDTAVYYCNADATWSGYIVSYDYWGQGTQVTVSS
polyreactivity (PSR sort gate): low polyreactivity

QVQLVESGGGLVQAGGSLRLSCAASGRIFFPYAMGWYRQAPGKERELVAAISTSSGRTYYADSVKGRFTISRDNAKNTVYLQMNSLKPEDTAVYYCNTRPGSYSYSYRYYYWGQGTQVTVSS
polyreactivity (PSR sort gate): high polyreactivity

QVQLVESGGGLVQAGGSLRLSCAASGRIFFPYAMGWYRQAPGKERELVAVITSGGTTYYADSVKGRFRISRDNAKNTVYLQMNSLKTEDTAVYYCAVHWYSYRYAATMDYWGQGTQVTVSS
polyreactivity (PSR sort gate): high polyreactivity

QVQLVESGGGLVQAGGSLRLSCAASGRIFFRNAMGWYRQAPGKERELVAAITWNGGSTYYADSVKGRFTISRDIAKNTVYLQMNSLKPEDTAVYYCNKAGVSYRSQYYYWGQGTQVTVSS
polyreactivity (PSR sort gate): high polyreactivity

QVQLVESGGGLVQAGGSLRLSCAASGRIFFRNAMGWYRQAPGKERELVAAITYSGGSTYYADSVKGRFTISRDNAKNTVYFQMNSLKPEDTAVYYCYADYYPYGEYDYWGQGTQVTVSS
polyreactivity (PSR sort gate): high polyreactivity

QVQLVESGGGLVQAGGSLRLSCAASGRIFFRYAMGWYRQAPGKEREFVAAISGTGGSTYYADSVKGRFTISRDNAKNTVYLQMNSLKPEDTAVYYCAASVVSRPTYYAYYYWGQGTQVTVSS
polyreactivity (PSR sort gate): high polyreactivity

QVQLVESGGGLVQAGGSLRLSCAASGRIFFRYTMGWYRQAPGKESELVAAITKRGGTYYADSVKGRFTISRDNAKNTVYLQMNSLKPEDTAVYYCNAVRYGINSYTYRRGYWGQGTQVTVSS
polyreactivity (PSR sort gate): high polyreactivity

QVQLVESGGGLVQAGGSLRLSCAASGRIFFSYMGWYRQAPGKERELVAAISSGGSTYYADSVKGRFTISRDNAKNTVYLQMNSLKPEDTAVYYCAARYRLDGTHMTGYAYYSWGQGTQVTVSS
polyreactivity (PSR sort gate): high polyreactivity

QVQLVESGGGLVQAGGSLRLSCAASGRIFFWYAMGWYRQAPGKERELVAGITSGGSTNYADSVKGRFTISRDNAKNTVYLQMNSLKPEDTAVYYCNTVDSIPIGSGLYYYWGQGTQVTVSS
polyreactivity (PSR sort gate): low polyreactivity

QVQLVESGGGLVQAGGSLRLSCAASGRIFFYYAMGWYRQAPGKERELVATISYSGGGTYYADSVKGRFTISRDNAKNTVYLQMNSLKPEDTAAYYCNARWGTPYYIQDFDYWGQGTQVTVSS
polyreactivity (PSR sort gate): low polyreactivity

QVQLVESGGGLVQAGGSLRLSCAASGRIFGAYAMGWYRQAPGKERELVAAITSRGGNTYYADSVKGRFTISRDNAKNTVDLQMNSLKPEDTAVYYCAARHDKRRQYYFGQSAFDYWGQGTQVTVSS
polyreactivity (PSR sort gate): low polyreactivity

QVQLVESGGGLVQAGGSLRLSCAASGRIFGAYAMGWYRQAPGKERELVAASSSGGSTYYADSVKGRFTISRDNAKNTVSLQMKSLNPEDTAVYYCAASSGNGYGYWGQGTQVSVSS
polyreactivity (PSR sort gate): high polyreactivity
